Assay results from patent US20200048612.

B1: HA-tagged full-length JMJD3 (protein)
chain: MHRAVDPPGARAAREAFALGGLSCAGAWSSCPPHPPPRSAWLPGGRCSASIGQPPLPAPLPPSHGSSSGHPSKPYYAPGAPTPRPLHGKLESLHGCVQALLREPAQPGLWEQLGQLYESEHDSEEATRCYHSALRYGGSFAELGPRIGRLQQAQLWNFHTGSCQHRAKVLPPLEQVWNLLHLEHKRNYGAKRGGPPVKRAAEPPVVQPVPPAALSGPSGEEGLSPGGKRRRGCNSEQTGLPPGLPLPPPPLPPPPPPPPPPPPPLPGLATSPPFQLTKPGLWSTLHGDAWGPERKGSAPPERQEQRHSLPHPYPYPAPAYTAHPPGHRLVPAAPPGPGPRPPGAESHGCLPATRPPGSDLRESRVQRSRMDSSVSPAATTACVPYAPSRPPGLPGTTTSSSSSSSSNTGLRGVEPNPGIPGADHYQTPALEVSHHGRLGPSAHSSRKPFLGAPAATPHLSLPPGPSSPPPPPCPRLLRPPPPPAWLKGPACRAAREDGEILEELFFGTEGPPRPAPPPLPHREGFLGPPASRFSVGTQDSHTPPTPPTPTTSSSNSNSGSHSSSPAGPVSFPPPPYLARSIDPLPRPPSPAQNPQDPPLVPLTLALPPAPPSSCHQNTSGSFRRPESPRPRVSFPKTPEVGPGPPPGPLSKAPQPVPPGVGELPARGPRLFDFPPTPLEDQFEEPAEFKILPDGLANIMKMLDESIRKEEEQQQHEAGVAPQPPLKEPFASLQSPFPTDTAPTTTAPAVAVTTTTTTTTTTTATQEEEKKPPPALPPPPPLAKFPPPSQPQPPPPPPPSPASLLKSLASVLEGQKYCYRGTGAAVSTRPGPLPTTQYSPGPPSGATALPPTSAAPSAQGSPQPSASSSSQFSTSGGPWARERRAGEEPVPGPMTPTQPPPPLSLPPARSESEVLEEISRACETLVERVGRSATDPADPVDTAEPADSGTERLLPPAQAKEEAGGVAAVSGSCKRRQKEHQKEHRRHRRACKDSVGRRPREGRAKAKAKVPKEKSRRVLGNLDLQSEEIQGREKSRPDLGGASKAKPPTAPAPPSAPAPSAQPTPPSASVPGKKAREEAPGPPGVSRADMLKLRSLSEGPPKELKIRLIKVESGDKETFIASEVEERRLRMADLTISHCAADVVRASRNAKVKGKFRESYLSPAQSVKPKINTEEKLPREKLNPPTPSIYLESKRDAFSPVLLQFCTDPRNPITVIRGLAGSLRLNLGLFSTKTLVEASGEHTVEVRTQVQQPSDENWDLTGTRQIWPCESSRSHTTIAKYAQYQASSFQESLQEEKESEDEESEEPDSTTGTPPSSAPDPKNHHIIKFGTNIDLSDAKRWKPQLQELLKLPAFMRVTSTGNMLSHVGHTILGMNTVQLYMKVPGSRTPGHQENNNFCSVNINIGPGDCEWFAVHEHYWETISAFCDRHGVDYLTGSWWPILDDLYASNIPVYRFVQRPGDLVWINAGTVHWVQATGWCNNIAWNVGPLTAYQYQLALERYEWNEVKNVKSIVPMIHVSWNVARTVKISDPDLFKMIKFCLLQSMKHCQVQRESLVRAGKKIAYQGRVKDEPAYYCNECDVEVFNILFVTSENGSRNTYLVHCEGCARRRSAGLQGVVVLEQYRTEELAQAYDAFTLVRARRARGQRRRALGQAAGTGFGSPAAPFPEPPPAFSPQAPASTSR
B2: HA-tagged JMJD3c (catalytic domain-containing C-terminus of JMJD3) (protein)
chain: QSEEIQGREKSRPDLGGASKAKPPTAPAPPSAPAPSAQPTPPSASVPGKKAREEAPGPPGVSRADMLKLRSLSEGPPKELKIRLIKVESGDKETFIASEVEERRLRMADLTISHCAADVVRASRNAKVKGKFRESYLSPAQSVKPKINTEEKLPREKLNPPTPSIYLESKRDAFSPVLLQFCTDPRNPITVIRGLAGSLRLNLGLFSTKTLVEASGEHTVEVRTQVQQPSDENWDLTGTRQIWPCESSRSHTTIAKYAQYQASSFQESLQEEKESEDEESEEPDSTTGTPPSSAPDPKNHHIIKFGTNIDLSDAKRWKPQLQELLKLPAFMRVTSTGNMLSHVGHTILGMNTVQLYMKVPGSRTPGHQENNNFCSVNINIGPGDCEWFAVHEHYWETISAFCDRHGVDYLTGSWWPILDDLYASNIPVYRFVQRPGDLVWINAGTVHWVQATGWCNNIAWNVGPLTAYQYQLALERYEWNEVKNVKSIVPMIHVSWNVARTVKISDPDLFKMIKFCLLQSMKHCQVQRESLVRAGKKIAYQGRVKDEPAYYCNECDVEVFNILFVTSENGSRNTYLVHCEGCARRRSAGLQGVVVLEQYRTEELAQAYDAFTLVRARRARGQRRRALGQAAGTGFGSPAAPFPEPPPAFSPQAPASTSR

Target: Histone H3 trimethylated at lysine 27 (H3K27me3), nucleosomal, in human ES cells

Protein	H3K27me3 level by immunostaining and immunoblotting, 8 hours after introduction of synthetic mRNA into hESCs	H3K27me3 level after doxycycline-induced expression in JMJD3c-hESCs
B1	the introduction of the JMJD3c mRNA induced a more significant decrease in H3K27me3 as compared to the JMJD3f mRNA	–
B2	the introduction of the JMJD3c mRNA induced a more significant decrease in H3K27me3 as compared to the JMJD3f mRNA	Dox treatment (1 µg/ml) induced HA-JMJD3c expression and a significant decrease in H3K27me3 in all hESCs
